Publication PMC12259648 (Frontiers in Immunology, 2025)

T1: Phl p 5.0101 (timothy grass)
T1 construct: Phl p 5.0101, major group 5 pollen allergen of timothy grass; The SPR methods say only 'Phl p 5 antigen'; also called major timothy grass pollen allergen Phl p 5; group 5 allergen; source: bought: Biomay, Vienna, Austria
T1 chain: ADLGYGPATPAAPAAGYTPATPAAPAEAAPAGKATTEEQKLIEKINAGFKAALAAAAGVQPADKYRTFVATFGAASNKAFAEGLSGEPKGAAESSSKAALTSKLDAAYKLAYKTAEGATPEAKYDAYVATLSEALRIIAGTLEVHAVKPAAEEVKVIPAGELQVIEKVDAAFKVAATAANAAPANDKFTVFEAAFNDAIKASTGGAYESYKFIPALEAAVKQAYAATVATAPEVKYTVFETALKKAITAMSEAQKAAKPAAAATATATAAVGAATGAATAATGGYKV


Molecular target: T1, Phl p 5.0101
Experiment: SPR; Biacore 1K+; purified IgG captured (about 100 RU) on anti-human IgG (Fc) on a CM5 chip; Phl p 5 injected at 1.875-60 nM, 25 uL/min, 120 s, 1360 s dissociation; PBS with 0.02% Tween 20; 1:1 Langmuir model
Conditions: both partners purified

Row | Kd [µM] | koff [s⁻¹] | kon [M⁻¹ s⁻¹] | Binder
1 | 0.0196 | 0.00262 | 130000 | 212579 E38HS, G62HS (antibody, V domains shown, numbers count on: IMGT numbering; as the VL of m2; IgG1, kappa; also called E38HS G62HS substituted antibody; source: Expi293F, transfected, purified (Protein A magnetic beads)) VH: EVQLVESGGGLVQPGGSLRLSCAASGFTFSSYSMTWVRQAPGKGLEWISYISSSSSTIYYADSVKGRFTISRDNAKNSLYLQMNSLRAEDTAVYYCARDLRWGVMDNYYYHGMDVWGQGTTVTVSS VL: EIVLTQSPGTLSLSPGERATLSCRASQSISSSYLTWYQQKPGQAPRLLIYGASSRATGIPDRFSGSGSGTDFTLTISRLEPEDFAVYYCQQYVSSLITFGQGTRLEIK
2 | 0.0085 | 0.00051 | 60000 | inferred unmutated common ancestor (UCA) of antibody 212579 (antibody, V domains shown, equals the inferred UCA heavy chain variable domain (GenBank PV255645, PV255646 for the two chains); numbers count on: IMGT numbering; equals the inferred UCA light chain variable domain (GenBank PV255645, PV255646 for the two chains); IgG1, kappa; also called inferred UCA; source: Expi293F, transfected, purified (Protein A magnetic beads)) VH: EVQLVESGGGLVQPGGSLRLSCAASGFTFSSYEMNWVRQAPGKGLEWVSYISSSGSTIYYADSVKGRFTISRDNAKNSLYLQMNSLRAEDTAVYYCARDLRWGVMDNYYYYGMDVWGQGTTVTVSS VL: not shown
